From patent publication US20230287081A1 (NANTONG YICHEN BIOPHARMA, published 2023)

How the values were obtained:
[1] = target: T1, mouse PD-L1-Fc (SinoBiological) (mouse, UniProt Q9EP73 19-238, limits assumed); assay: ELISA, mouse PD-L1-Fc coated
T1 construct: Bought reagent; also called soluble mPD-L1; not shown: Fc
Method: (§1) hPD-L1-hIGg1Fc (SinoBiological) or mouse PD-L1-Fc (SinoBiological) (100 ng/well) was coated in 96-well plates, and incubated overnight at 4° C. […] After being washed with PBST containing 2% skimmed milk powder for 4-5 times, anti-human kappa light chain-HRP (Sigma A7146, 1:3000) secondary antibody was added and incubated at room temperature for 1 h, and then washed with PBST containing 2% skimmed milk powder for 4-5 times. Colordevelopment was performed by QuantaBlu fluorescent peroxidase substrate (Life technologies, Cat.15169) and read at 325 nm and 420 nm, or by TMB color reagent (BioLegend, Cat. 421101) and read at 650 nm (unterminated) or 450 nm (terminated). Data was analyzed by nonlinear regression using specific binding model with Prizm Graphpad software.

[2] = target: T2, hPD-L1 on the cell surface (CHO-hPD-L1 cells; A431 cells) (human, UniProt Q9NZQ7 19-290); assay: flow cytometry on CHO-hPD-L1 cells (hEGFR- hPDL1+)
T2 construct: whole, on cells; also called CHO-PD-L1
Method: (§2) A431, MC38-hEGFR, CHO-PD-L1, HepG2, and Hepa1-6 cells (DMEM medium containing 10% FBS, 1% double antibody) were cultured. After trypsinization, 2*10⁵ cells were taken and washed with pre-cooled PBS for 3 times. After blocked with PBS containing 2% FBS at 4° C., supernatant was discarded by centrifugation, 100 µL of the antibody fusion proteins with different concentrations diluted by the PBS solution containing 2% FBS were added and incubated at 4° C. for 1 h. The unbound antibody fusion protein was washed off with PBS containing 2% FBS, and secondary antibody Mouse Anti-Human IgG Fc-APC (Southern biotech) was added and incubated at 4° C. for 1 h. After being washed with PBS containing 2% FBS for three times, the fluorescence intensity was detected by flow cytometry.

[3] = target: T3, hPD-L1-hIGg1Fc (SinoBiological) (human, UniProt Q9NZQ7 19-238); assay: ELISA, hPD-L1-hIgG1Fc coated
T3 construct: Bought reagent; also called soluble hPD-L1; human PD-L1; not shown: human IgG1 Fc
Method: as §1

[4] = target: T1, mouse PD-L1-Fc (SinoBiological); assay: ELISA, mouse PD-L1-Fc coated; weaker than the PD-1m fusion
Method: as §1

[5] = target: T3, hPD-L1-hIGg1Fc (SinoBiological); assay: ELISA, hPD-L1-hIgG1Fc coated; weaker than the PD-1m fusion
Method: as §1

[6] = target: T4, mPDL1 on the surface of Hepa1-6 cells (mouse, UniProt Q9EP73 19-290); assay: flow cytometry on Hepa1-6 cells (hGPC3- mPDL1+)
T4 construct: whole, on cells; also called mouse PD-L1
Method: as §2

[7] = target: T2, hPD-L1 on the cell surface (CHO-hPD-L1 …); assay: flow cytometry on A431 cells (hGPC3- hPDL1+)
Method: as §2

T1 sequence (Q9EP73 19-238 limits assumed): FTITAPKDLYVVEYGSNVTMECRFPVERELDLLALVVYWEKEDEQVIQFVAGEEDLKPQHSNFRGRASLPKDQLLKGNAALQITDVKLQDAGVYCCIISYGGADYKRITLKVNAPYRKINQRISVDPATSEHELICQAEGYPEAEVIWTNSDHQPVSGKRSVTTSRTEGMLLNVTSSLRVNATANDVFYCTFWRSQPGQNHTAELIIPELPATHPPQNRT
T3 sequence (Q9NZQ7 19-238 limits assumed): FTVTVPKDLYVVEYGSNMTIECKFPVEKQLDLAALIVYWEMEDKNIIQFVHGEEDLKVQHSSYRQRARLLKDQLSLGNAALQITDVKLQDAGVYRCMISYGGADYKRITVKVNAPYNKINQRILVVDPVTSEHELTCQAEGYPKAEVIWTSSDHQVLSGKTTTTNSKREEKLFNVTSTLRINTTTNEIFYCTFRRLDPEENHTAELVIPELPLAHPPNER
T2 sequence (Q9NZQ7 19-290): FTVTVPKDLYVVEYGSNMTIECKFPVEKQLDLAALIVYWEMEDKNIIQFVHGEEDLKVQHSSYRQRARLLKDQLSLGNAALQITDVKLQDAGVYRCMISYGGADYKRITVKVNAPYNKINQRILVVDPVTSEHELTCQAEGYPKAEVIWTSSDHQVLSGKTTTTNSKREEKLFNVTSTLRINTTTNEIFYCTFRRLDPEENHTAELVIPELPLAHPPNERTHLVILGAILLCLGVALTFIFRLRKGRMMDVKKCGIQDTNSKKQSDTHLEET
T4 sequence (Q9EP73 19-290): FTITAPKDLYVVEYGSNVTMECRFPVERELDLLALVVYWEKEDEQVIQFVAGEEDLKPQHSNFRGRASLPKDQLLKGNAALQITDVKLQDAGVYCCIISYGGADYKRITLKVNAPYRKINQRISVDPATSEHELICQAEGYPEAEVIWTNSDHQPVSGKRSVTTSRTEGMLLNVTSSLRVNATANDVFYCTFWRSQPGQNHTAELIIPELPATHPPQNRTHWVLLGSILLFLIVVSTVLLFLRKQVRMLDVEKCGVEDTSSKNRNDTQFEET

binding result [1] | binding result [2] | binding result [3] | binding result [4] | binding result [5] | binding result [6] | binding result [7] | Binder
binds | binds | binds |  |  |  |  | PD-1m-aEGFRL (bispecific antibody, human IgG1, kappa) heavy: QVQLQESGPGLVKPSETLSLTCTVSGGSVSSGDYYWTWIRQSPGKGLEWIGHIYYSGNTNYNPSLKSRLTISIDTSKTQFSLKLSSVTAADTAIYYCVRDRVTGAFDIWGQGTMVTVSSASTKGPSVFPLAPSSKSTSGGTAALGCLVKDYFPEPVTVSWNSGALTSGVHTFPAVLQSSGLYSLSSVVTVPSSSLGTQTYICNVNHKPSNTKVDKKVEPKSCDKTHTCPPCPAPPVAGPSVFLFPPKPKDTLMISRTPEVTCVVVDVSHEDPEVKFNWYVDGVEVHNAKTKPREEQYNSTYRVVSVLTVLHQDWLNGKEYKCKVSNKGLPSSIEKTISKAKGQPREPQVYTLPPSRDELTKNQVSLTCLVKGFYPSDIAVEWESNGQPENNYKTTPPVLDSDGSFFLYSKLTVDKSRWQQGNVFSCSVMHEALHNHYTQKSLSLSPGK light: not shown
 |  |  | binds | binds |  |  | PD-1-aEGFRL (bispecific antibody, Wild-type human PD-1 fused to the light chain of the anti-human EGFR antibody) heavy: QVQLQESGPGLVKPSETLSLTCTVSGGSVSSGDYYWTWIRQSPGKGLEWIGHIYYSGNTNYNPSLKSRLTISIDTSKTQFSLKLSSVTAADTAIYYCVRDRVTGAFDIWGQGTMVTVSSASTKGPSVFPLAPSSKSTSGGTAALGCLVKDYFPEPVTVSWNSGALTSGVHTFPAVLQSSGLYSLSSVVTVPSSSLGTQTYICNVNHKPSNTKVDKKVEPKSCDKTHTCPPCPAPPVAGPSVFLFPPKPKDTLMISRTPEVTCVVVDVSHEDPEVKFNWYVDGVEVHNAKTKPREEQYNSTYRVVSVLTVLHQDWLNGKEYKCKVSNKGLPSSIEKTISKAKGQPREPQVYTLPPSRDELTKNQVSLTCLVKGFYPSDIAVEWESNGQPENNYKTTPPVLDSDGSFFLYSKLTVDKSRWQQGNVFSCSVMHEALHNHYTQKSLSLSPGK light: not shown
binds |  | binds |  |  | binds | binds | PD-1m-aGPC-3L (bispecific antibody, human IgG1, kappa) heavy: QVQLVQSGAEVKKPGASVKVSCKASGYTFTDYEMHWVRQAPGQGLEWMGALDPKTGDTAYSQKFKGRVTLTADKSTSTAYMELSSLTSEDTAVYYCTRFYSYTYWGQGTLVTVSSASTKGPSVFPLAPSSKSTSGGTAALGCLVKDYFPEPVTVSWNSGALTSGVHTFPAVLQSSGLYSLSSVVTVPSSSLGTQTYICNVNHKPSNTKVDKKVEPKSCDKTHTCPPCPAPPVAGPSVFLFPPKPKDTLMISRTPEVTCVVVDVSHEDPEVKFNWYVDGVEVHNAKTKPREEQYNSTYRVVSVLTVLHQDWLNGKEYKCKVSNKGLPSSIEKTISKAKGQPREPQVYTLPPSRDELTKNQVSLTCLVKGFYPSDIAVEWESNGQPENNYKTTPPVLDSDGSFFLYSKLTVDKSRWQQGNVFSCSVMHEALHNHYTQKSLSLSPGK light: LDSPDRPWNPPTFSPALLVVTEGDNATFTCSFSNTSESFVLNWYRMSPSNQTDKLAAFPEDRSQPGQDSRFRVTQLPNGRDFHMSVVRARRNDSGTYLCGAISLAPKVQIKESLRAELRVTERRAEVPTAHPSPSPRPAGQFQGGGGSGGGGSGGGGSGDVVMTQSPLSLPVTPGEPASISCRSSQSLVHSNRNTYLHWYLQKPGQSPQLLIYKVSNRFSGVPDRFSGSGSGTDFTLKISRVEAEDVGVYYCSQNTHVPPTFGQGTKLEIKRTVAAPSVFIFPPSDEQLKSGTASVVCLLNNFYPREAKVQWKVDNALQSGNSQESVTEQDSKDSTYSLSSTLTLSKADYEKHKVYACEVTHQGLSSPVTKSFNRGEC
